This is an account of results in patent US10369187B2, “Peptide regulators of JNK family kinases” (Vanderbilt University, priority 2017, dated 2019).

The target of assay [1] is T1, JNK3 (Homo sapiens, UniProt P53779). The experiment in a line: MBP pull-down of purified JNK3. The assay is classed as binding. As to conditions: MBP-fusions, compared with T1A. The procedure: FIG. 5. […] Residues that differ between T1A and B1A are shown in magenta. b, c, d) Pull-down of purified JNK3 (b), MKK4 (c), and MKK7 (d) by MBP (negative control), MBP-arrestin-3 (positive control), MBP-T1A, and MBP-B1A, was performed, as described in Methods. Lower panels, Coomassie gels of loaded MBP-fusions; middle panels, Western blots of retained JNK3 (b), MKK4 (c), and MKK7 (d); upper panels, quantification of Western blots from 3-4 independent experiments. […] T1A sequence shown is SEQ ID NO:1. B1A sequence shown is SEQ ID NO:6.
T1 sequence (P53779 whole entry, species assumed, the tested form may be a part): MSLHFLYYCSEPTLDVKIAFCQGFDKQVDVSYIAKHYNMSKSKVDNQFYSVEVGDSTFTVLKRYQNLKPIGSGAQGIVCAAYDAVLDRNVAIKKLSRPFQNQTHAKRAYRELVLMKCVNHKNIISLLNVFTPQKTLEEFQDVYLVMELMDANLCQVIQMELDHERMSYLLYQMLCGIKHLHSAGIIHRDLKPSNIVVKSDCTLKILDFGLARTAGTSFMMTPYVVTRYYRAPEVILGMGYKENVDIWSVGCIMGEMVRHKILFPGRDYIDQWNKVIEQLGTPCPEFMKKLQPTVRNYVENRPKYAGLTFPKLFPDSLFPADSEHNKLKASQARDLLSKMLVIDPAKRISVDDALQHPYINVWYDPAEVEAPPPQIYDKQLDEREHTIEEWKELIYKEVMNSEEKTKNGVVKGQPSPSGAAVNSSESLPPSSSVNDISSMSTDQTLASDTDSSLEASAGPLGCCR
To test the specificity of T1A action, its ability to bind purified MKK4, MKK7, and JNK3 was compared with that of B1A, a homologous N-terminal peptide from closely related arrestin-2, which differs from T1A only in four positions (FIG. 5). […] To test whether this difference in binding translates into differential activity in cells, the ability of YFP-T1A and YFP-B1A to facilitate JNK3 activation were compared in cells over-expressing ASK1, using YFP-arrestin-3 and YFP as positive and negative controls, respectively.
To make MBP-fusions containing arrestin-2/3 elements, the cDNAs encoding arrestin fragments were subcloned into pMal-p2T (generous gift from Dr. Keiji Tanaka, Tokyo Institute of Medical Science) between Eco RI and Xho I sites in frame with MBP, as described^23. […] Eluates were analyzed by SDS-PAGE and Western blotting.

In assay [2] the target is T1, JNK3. As to conditions: earlier work, reference 23; cited from earlier work.

As to “MGDK-GTRVFKKASPNGKLTVYLGK (MGDKGTRVFKKASPNGKLTVYLGK; N-terminal MGDK; bovine) [B1A, homologous N-terminal peptide from arrestin-2, negative control]”, the “binding of JNK3 in MBP pull-down” value with JNK3 [1] was “less robust interaction”. Turning to “MGEKPGTRVFKKSSPNCKLTVYLGK (bovine) [T1A, first 25 residues of arrestin-3]”, the “JNK3 binding element of arrestin-3” value in the assay with JNK3 [2] is “key interaction site”.
